Numbered stars: 1 amine (or outer) side, 2 acyl side, 3 side chain; on linkers, the order of the positions; unused ones are H or OH. Bridge positions count the residues as written; N and C are the ends. * marks the point of attachment. C20 diacid = O=C(O)CCCCCCCCCCCCCCCCCCC(=O)*; γGlu = O=C(O)[C@H](CCC(=O)[*:2])N[*:1]
B1: N^α1-[(4S)-4-carboxy-4-(19-carboxynonadecanoylamino)butanoyl]-[Glu14,Arg17,Pro21,Pro27,His34]-h-amylin (peptide)
peptide: {C20 diacid-γGlu}-KCNTATCATQRLAEFLRHSSPNFGAIPSSTNVGHNTY-NH2
modifications: disulfide 2-7
SMILES: CC[C@H](C)[C@H](NC(=O)[C@H](C)NC(=O)CNC(=O)[C@H](Cc1ccccc1)NC(=O)[C@H](CC(N)=O)NC(=O)[C@@H]1CCCN1C(=O)[C@H](CO)NC(=O)[C@H](CO)NC(=O)[C@H](Cc1c[nH]cn1)NC(=O)[C@H](CCCNC(=N)N)NC(=O)[C@H](CC(C)C)NC(=O)[C@H](Cc1ccccc1)NC(=O)[C@H](CCC(=O)O)NC(=O)[C@H](C)NC(=O)[C@H](CC(C)C)NC(=O)[C@H](CCCNC(=N)N)NC(=O)[C@H](CCC(N)=O)NC(=O)[C@@H](NC(=O)[C@H](C)NC(=O)[C@@H]1CSSC[C@H](NC(=O)[C@H](CCCCN)NC(=O)CC[C@H](NC(=O)CCCCCCCCCCCCCCCCCCC(=O)O)C(=O)O)C(=O)N[C@@H](CC(N)=O)C(=O)N[C@@H]([C@@H](C)O)C(=O)N[C@@H](C)C(=O)N[C@@H]([C@@H](C)O)C(=O)N1)[C@@H](C)O)C(=O)N1CCC[C@H]1C(=O)N[C@@H](CO)C(=O)N[C@@H](CO)C(=O)N[C@H](C(=O)N[C@@H](CC(N)=O)C(=O)N[C@H](C(=O)NCC(=O)N[C@@H](Cc1c[nH]cn1)C(=O)N[C@@H](CC(N)=O)C(=O)N[C@H](C(=O)N[C@@H](Cc1ccc(O)cc1)C(N)=O)[C@@H](C)O)C(C)C)[C@@H](C)O
notes: modifications are with respect to human amylin; also called compound 17
B2: N^α1-[(4S)-4-carboxy-4-(19-carboxynonadecanoylamino)butanoyl]-[Glu14,Arg17,Pro21,Pro27,Pro29]-h-amylin (peptide)
peptide: {C20 diacid-γGlu}-KCNTATCATQRLAEFLRHSSPNFGAIPSPTNVGSNTY-NH2
modifications: disulfide 2-7
SMILES: CC[C@H](C)[C@H](NC(=O)[C@H](C)NC(=O)CNC(=O)[C@H](Cc1ccccc1)NC(=O)[C@H](CC(N)=O)NC(=O)[C@@H]1CCCN1C(=O)[C@H](CO)NC(=O)[C@H](CO)NC(=O)[C@H](Cc1c[nH]cn1)NC(=O)[C@H](CCCNC(=N)N)NC(=O)[C@H](CC(C)C)NC(=O)[C@H](Cc1ccccc1)NC(=O)[C@H](CCC(=O)O)NC(=O)[C@H](C)NC(=O)[C@H](CC(C)C)NC(=O)[C@H](CCCNC(=N)N)NC(=O)[C@H](CCC(N)=O)NC(=O)[C@@H](NC(=O)[C@H](C)NC(=O)[C@@H]1CSSC[C@H](NC(=O)[C@H](CCCCN)NC(=O)CC[C@H](NC(=O)CCCCCCCCCCCCCCCCCCC(=O)O)C(=O)O)C(=O)N[C@@H](CC(N)=O)C(=O)N[C@@H]([C@@H](C)O)C(=O)N[C@@H](C)C(=O)N[C@@H]([C@@H](C)O)C(=O)N1)[C@@H](C)O)C(=O)N1CCC[C@H]1C(=O)N[C@@H](CO)C(=O)N1CCC[C@H]1C(=O)N[C@H](C(=O)N[C@@H](CC(N)=O)C(=O)N[C@H](C(=O)NCC(=O)N[C@@H](CO)C(=O)N[C@@H](CC(N)=O)C(=O)N[C@H](C(=O)N[C@@H](Cc1ccc(O)cc1)C(N)=O)[C@@H](C)O)C(C)C)[C@@H](C)O
notes: modifications are with respect to human amylin; also called compound 37
B3: N^α1-[(4S)-4-carboxy-4-(19-carboxynonadecanoylamino)butanoyl]-[Glu14,Arg17,Pro21,Pro27,Pro34]-h-amylin (peptide)
peptide: {C20 diacid-γGlu}-KCNTATCATQRLAEFLRHSSPNFGAIPSSTNVGPNTY-NH2
modifications: disulfide 2-7
SMILES: CC[C@H](C)[C@H](NC(=O)[C@H](C)NC(=O)CNC(=O)[C@H](Cc1ccccc1)NC(=O)[C@H](CC(N)=O)NC(=O)[C@@H]1CCCN1C(=O)[C@H](CO)NC(=O)[C@H](CO)NC(=O)[C@H](Cc1c[nH]cn1)NC(=O)[C@H](CCCNC(=N)N)NC(=O)[C@H](CC(C)C)NC(=O)[C@H](Cc1ccccc1)NC(=O)[C@H](CCC(=O)O)NC(=O)[C@H](C)NC(=O)[C@H](CC(C)C)NC(=O)[C@H](CCCNC(=N)N)NC(=O)[C@H](CCC(N)=O)NC(=O)[C@@H](NC(=O)[C@H](C)NC(=O)[C@@H]1CSSC[C@H](NC(=O)[C@H](CCCCN)NC(=O)CC[C@H](NC(=O)CCCCCCCCCCCCCCCCCCC(=O)O)C(=O)O)C(=O)N[C@@H](CC(N)=O)C(=O)N[C@@H]([C@@H](C)O)C(=O)N[C@@H](C)C(=O)N[C@@H]([C@@H](C)O)C(=O)N1)[C@@H](C)O)C(=O)N1CCC[C@H]1C(=O)N[C@@H](CO)C(=O)N[C@@H](CO)C(=O)N[C@H](C(=O)N[C@@H](CC(N)=O)C(=O)N[C@H](C(=O)NCC(=O)N1CCC[C@H]1C(=O)N[C@@H](CC(N)=O)C(=O)N[C@H](C(=O)N[C@@H](Cc1ccc(O)cc1)C(N)=O)[C@@H](C)O)C(C)C)[C@@H](C)O
notes: modifications are with respect to human amylin; also called compound 32
B4: N^α1-[(4S)-4-carboxy-4-(19-carboxynonadecanoylamino)butanoyl]-[Glu14,Arg17,Pro21,Pro28,Glu35]-h-amylin (peptide)
peptide: {C20 diacid-γGlu}-KCNTATCATQRLAEFLRHSSPNFGAILPSTNVGSETY-NH2
modifications: disulfide 2-7
notes: modifications are with respect to human amylin; also called compound 33
B5: N^α1-[(4S)-4-carboxy-4-(19-carboxynonadecanoylamino)butanoyl]-[Glu14,Arg17,Pro21,Pro27,His35]-h-amylin (peptide)
peptide: {C20 diacid-γGlu}-KCNTATCATQRLAEFLRHSSPNFGAIPSSTNVGSHTY-NH2
modifications: disulfide 2-7
SMILES: CC[C@H](C)[C@H](NC(=O)[C@H](C)NC(=O)CNC(=O)[C@H](Cc1ccccc1)NC(=O)[C@H](CC(N)=O)NC(=O)[C@@H]1CCCN1C(=O)[C@H](CO)NC(=O)[C@H](CO)NC(=O)[C@H](Cc1c[nH]cn1)NC(=O)[C@H](CCCNC(=N)N)NC(=O)[C@H](CC(C)C)NC(=O)[C@H](Cc1ccccc1)NC(=O)[C@H](CCC(=O)O)NC(=O)[C@H](C)NC(=O)[C@H](CC(C)C)NC(=O)[C@H](CCCNC(=N)N)NC(=O)[C@H](CCC(N)=O)NC(=O)[C@@H](NC(=O)[C@H](C)NC(=O)[C@@H]1CSSC[C@H](NC(=O)[C@H](CCCCN)NC(=O)CC[C@H](NC(=O)CCCCCCCCCCCCCCCCCCC(=O)O)C(=O)O)C(=O)N[C@@H](CC(N)=O)C(=O)N[C@@H]([C@@H](C)O)C(=O)N[C@@H](C)C(=O)N[C@@H]([C@@H](C)O)C(=O)N1)[C@@H](C)O)C(=O)N1CCC[C@H]1C(=O)N[C@@H](CO)C(=O)N[C@@H](CO)C(=O)N[C@H](C(=O)N[C@@H](CC(N)=O)C(=O)N[C@H](C(=O)NCC(=O)N[C@@H](CO)C(=O)N[C@@H](Cc1c[nH]cn1)C(=O)N[C@H](C(=O)N[C@@H](Cc1ccc(O)cc1)C(N)=O)[C@@H](C)O)C(C)C)[C@@H](C)O
notes: modifications are with respect to human amylin; also called compound 18
B6: N^α1-[(4S)-4-carboxy-4-(19-carboxynonadecanoylamino)butanoyl]-[Glu14,Arg17,Pro21,Pro27,Pro31]-h-amylin (peptide)
peptide: {C20 diacid-γGlu}-KCNTATCATQRLAEFLRHSSPNFGAIPSSTPVGSNTY-NH2
modifications: disulfide 2-7
SMILES: CC[C@H](C)[C@H](NC(=O)[C@H](C)NC(=O)CNC(=O)[C@H](Cc1ccccc1)NC(=O)[C@H](CC(N)=O)NC(=O)[C@@H]1CCCN1C(=O)[C@H](CO)NC(=O)[C@H](CO)NC(=O)[C@H](Cc1c[nH]cn1)NC(=O)[C@H](CCCNC(=N)N)NC(=O)[C@H](CC(C)C)NC(=O)[C@H](Cc1ccccc1)NC(=O)[C@H](CCC(=O)O)NC(=O)[C@H](C)NC(=O)[C@H](CC(C)C)NC(=O)[C@H](CCCNC(=N)N)NC(=O)[C@H](CCC(N)=O)NC(=O)[C@@H](NC(=O)[C@H](C)NC(=O)[C@@H]1CSSC[C@H](NC(=O)[C@H](CCCCN)NC(=O)CC[C@H](NC(=O)CCCCCCCCCCCCCCCCCCC(=O)O)C(=O)O)C(=O)N[C@@H](CC(N)=O)C(=O)N[C@@H]([C@@H](C)O)C(=O)N[C@@H](C)C(=O)N[C@@H]([C@@H](C)O)C(=O)N1)[C@@H](C)O)C(=O)N1CCC[C@H]1C(=O)N[C@@H](CO)C(=O)N[C@@H](CO)C(=O)N[C@H](C(=O)N1CCC[C@H]1C(=O)N[C@H](C(=O)NCC(=O)N[C@@H](CO)C(=O)N[C@@H](CC(N)=O)C(=O)N[C@H](C(=O)N[C@@H](Cc1ccc(O)cc1)C(N)=O)[C@@H](C)O)C(C)C)[C@@H](C)O
notes: modifications are with respect to human amylin; also called compound 31

Each binder was assayed against T1, rat calcitonin receptor (rat, UniProt P32214 25-516) (assay: IC50 at rCTR divided by IC50 at rAmylin-R (reference)).
T1 construct: whole, on cells; Membranes of BHK tk'ts 13 cells transiently transfected with the rat calcitonin receptor; also called rCTR; rat calcitonin (a) receptor
T1 sequence (looked up): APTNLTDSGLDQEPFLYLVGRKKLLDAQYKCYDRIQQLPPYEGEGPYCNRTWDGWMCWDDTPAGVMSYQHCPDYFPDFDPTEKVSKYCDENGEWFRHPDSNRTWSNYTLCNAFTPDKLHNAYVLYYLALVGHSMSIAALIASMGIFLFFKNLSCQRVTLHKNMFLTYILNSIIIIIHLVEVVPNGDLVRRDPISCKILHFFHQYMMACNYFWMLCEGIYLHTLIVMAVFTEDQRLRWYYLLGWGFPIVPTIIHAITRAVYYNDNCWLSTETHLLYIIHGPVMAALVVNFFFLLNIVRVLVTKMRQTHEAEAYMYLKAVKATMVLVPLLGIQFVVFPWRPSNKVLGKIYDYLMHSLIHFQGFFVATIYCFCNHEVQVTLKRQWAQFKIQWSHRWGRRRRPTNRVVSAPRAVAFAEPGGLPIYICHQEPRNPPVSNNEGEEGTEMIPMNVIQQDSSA

Row | Binder | Ratio rCT/rAmylin binding
1 | B1 | 35.9
2 | B2 | 14.3
3 | B3 | 34
4 | B4 | 12.6
5 | B5 | 27.3
6 | B6 | 42.8

Each binder was assayed against T2, human calcitonin receptor (human, UniProt P30988 25-474) (assay: IC50 at hCTR divided by IC50 at hAmylin-R (reference)).
T2 construct: whole, on cells; Membranes of a BHK tk'ts 13 cell line stably transfected with the human calcitonin receptor; also called hCTR; hCT
T2 sequence (looked up): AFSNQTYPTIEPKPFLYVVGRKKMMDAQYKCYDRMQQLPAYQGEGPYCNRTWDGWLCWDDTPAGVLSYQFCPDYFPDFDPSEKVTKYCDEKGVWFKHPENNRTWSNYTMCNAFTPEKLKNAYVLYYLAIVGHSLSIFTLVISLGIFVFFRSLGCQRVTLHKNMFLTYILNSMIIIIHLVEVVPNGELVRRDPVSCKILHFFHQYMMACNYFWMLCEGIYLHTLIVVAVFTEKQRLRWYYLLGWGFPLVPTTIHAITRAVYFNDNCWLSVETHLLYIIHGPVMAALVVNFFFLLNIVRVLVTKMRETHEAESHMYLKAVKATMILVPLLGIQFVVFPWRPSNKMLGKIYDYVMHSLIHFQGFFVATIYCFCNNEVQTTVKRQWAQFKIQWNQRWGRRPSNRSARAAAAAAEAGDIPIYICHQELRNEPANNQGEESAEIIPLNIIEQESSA
Method in brief: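 Competition binding by SPA with cell membranes (35 ng/μL) and SPA beads in 50 mM Hepes pH 7.4 with 1 mM CaCl2, 5 mM MgCl2, 0.1% OA and 0.02% Tween20. Incubated 120 min at 25 °C with shaking, then counted.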

Row | Binder | Ratio hCT/hAmylin binding
7 | B1 | 12.5
8 | B2 | 2.3
9 | B3 | 10.9
10 | B4 | 3.9
11 | B5 | 9.2
12 | B6 | 16

What follows are binders tested against T3, rat amylin receptor (rat calcitonin receptor + rat RAMP 3) (rat, UniProt P32214 25-516; Q9JJ73 23-147) (assay: SPA competition vs 125I-rat amylin, membranes with rat CTR + rat RAMP3 (Assay VI)).
T3 construct: whole, on cells; Membranes of BHK tk'ts 13 cells transiently transfected with the rat calcitonin receptor and rat RAMP 3; also called rAmylin-R; rat amylin 3(a) receptor
T3 sequence (looked up) 1: T1 sequence (looked up)
T3 sequence (looked up) 2: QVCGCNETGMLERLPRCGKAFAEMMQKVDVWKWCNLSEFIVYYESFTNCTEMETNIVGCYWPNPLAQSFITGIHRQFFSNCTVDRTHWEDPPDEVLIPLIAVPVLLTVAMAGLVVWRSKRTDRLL

Row | Binder | IC50 [nM]
13 | B1 | 2.71
14 | B2 | 0.514
15 | B3 | 0.176
16 | B4 | 2.29
17 | B5 | 0.476
18 | B6 | 0.619

Each binder was assayed against T1, rat calcitonin receptor (assay: SPA competition vs 125I-calcitonin, membranes with rat CTR (Assay VIII)).

Row | Binder | IC50 [nM]
19 | B1 | 97.2
20 | B2 | 7.35
21 | B3 | 5.98
22 | B4 | 28.9
23 | B5 | 13
24 | B6 | 26.5

Reference: patent US20140087995A1 (published 2014)
